Entries after “also recorded” stand apart in the source; their conditions may differ. FAM = 5(6)-carboxyfluorescein; Ahx = NCCCCCC(=O)O
How the values were obtained:
[1] = tested on: U87-MG cells; test: Effect of endocytosis inhibitors on PL1-AgNP uptake (flow cytometry); format: cell-based; details: pre-incubation with 50 μM Nystatin, 50 μM EIPA, 4 μM Cytochalasin D or 10 μM Chlorpromazine, PL1-AgNPs 37 °C 1 h, etching, three independent experiments
Description: For characterization of the AgNP uptake pathway in glioma cells, the U87-MG cells were cultured until 80–90% confluency and pre-incubated with the following endocytosis inhibitors: (1) 50 μM Nystatin to block caveolae/lipid-mediated endocytosis, (2) 50 μM 5-(N-ethyl-N-isopropyl)-Amiloride (EIPA) to block […], (3) 4 μM Cytochalasin D to block actin polymerization and […], and (4) 10 μM Chlorpromazine to block clathrin-mediated endocytosis. The PL1-AgNPs or control biotin-AgNPs were then added, and the cells were incubated at 37 °C for 1 h and subsequently washed to remove free particles. Some samples were also treated with an etching solution to remove accessible surface-bound AgNPs. The fluorescence of the labeled AgNPs was detected and analyzed using the BD Accuri 6 flow cytometer in the 555 nm channel.

[2] = target: T1, TNC-C WT and mutants (Homo sapiens, UniProt P24821, D1565N/D1571N); test: Binding of PL1 nanoworms to recombinant TNC-C proteins; details: FAM-labeled NWs, 80 µg/reaction, protein on Ni-NTA beads, fluorescence 485/535 nm, baseline corrected with control protein P32; three independent experiments
T1 construct: Tenascin C C-isoform (TNC-C); made in house; host or cells: E. coli BL21 Rosetta 2 (DE3) pLysS
T1 sequence (P24821 1527-1617 D1565N/D1571N): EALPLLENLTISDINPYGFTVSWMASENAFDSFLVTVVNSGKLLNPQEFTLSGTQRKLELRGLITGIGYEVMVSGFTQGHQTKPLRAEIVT
Description: (§1) Wild type (WT) TNC-C and FN-EDB were prepared as described previously. The DNA inserts encoding for hexahistidine-tagged mutant TNC-C variants (TNC-C E48Q, TNC-C D39N D45N, TNC-C D13N E70Q E88Q) and mutant FN-EDBs variants (FnEDB D68N D70N, FnEDB D52N D49N D12N, FnEDB E42Q D68N E64Q) were synthesized and cloned into pET28a+ expression vectors (GenScript Biotech BV, Netherlands). The resulting plasmids were transformed into the E. coli BL21 Rosetta 2 (DE3) pLysS strain (Novagen, #70956). The protein expression was induced with 0.5 mM IPTG and followed by culturing at 20 °C for 16 h. The bacterial cells were lysed by sonication (Bandelin Sonopuls HD 2070, Merck, Germany) in ice-cold IMAC buffer (25 mM Tris-HCL, 400 mM NaCl, 25 mM imidazole pH 8, protease inhibitors cocktail, DNase I, 1 mM MgCl2). […] The protein concentration was measured by bicinchoninic acid (BCA) assay (Thermo Scientific #23227). The protein purity and size were analyzed using 15% SDS-PAGE.
(§2) The recombinant hexahistidine-tagged TNC-C and EDB WT and mutant proteins (at 60 µg of protein/40 µL beads in PBS) were immobilized to Ni-NTA Magnetic Agarose Beads (QIAGEN, Hilden, Germany) at RT for 1 h. […] The fluorescence of eluted samples was quantified using a Victor X5 Multilabel Plate Reader (PerkinElmer, MA, USA) at an excitation wavelength of 485 nm and an emission wavelength of 535 nm.

[3] = target: T2, FN-EDB WT and mutants (Homo sapiens, UniProt P02751, D1277N/D1314N/D1317N); test: Binding of PL1 nanoworms to recombinant FN-EDB proteins; details: FAM-labeled NWs, 80 µg/reaction, protein on Ni-NTA beads, fluorescence 485/535 nm, baseline corrected with control protein P32; three independent experiments
T2 construct: Fibronectin Extra Domain B (FN-EDB); made in house; host or cells: E. coli BL21 Rosetta 2 (DE3) pLysS
T2 sequence (P02751 1271-1359 D1277N/D1314N/D1317N): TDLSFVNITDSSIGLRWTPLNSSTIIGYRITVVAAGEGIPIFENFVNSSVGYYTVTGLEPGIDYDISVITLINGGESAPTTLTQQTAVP
Description: as §1, §2

[4] = target: T3, PL1 peptide displayed on T7 phage; test: phage binding to immobilized recombinant protein (Ni-NTA magnetic beads); details: chain shown with the change;; parent: est. 100; read off a plot
T3 chain: PPRRGLIKLKTS

[5] = target: T4, PL1-functionalized iron oxide nanoworms (FAM-labelled PL1 peptide on NWs); test: fluorescence readout of FAM-labeled PL1-NW binding to protein-coated NiNTA beads; details: chain shown with the change; baseline correction with control protein P32; parent: est. 100; read off a plot
T4 chain: PPRRGLIKLKTS

[6] = target: Fibronectin Extra Domain B mutant D52N D49N D12N, hexahistidine-tagged (human); test: binding of fluorescent peptide nanoworms to protein-coated beads; His-tagged proteins (60 µg/40 µL beads) on Ni-NTA magnetic agarose beads; FAM-labelled PL1-NW 80 µg/reaction in PBS, 1% BSA, 0.1% NP40; 6 washes; eluted with 500 mM imidazole; fluorescence 485/535 nm; percent of WT after baseline correction with control protein P32
[7] = target: Fibronectin Extra Domain B, wild type, hexahistidine-tagged (human) (UniProt P02751); test: fluorescence polarisation; fluorescence anisotropy saturation binding in solution; fixed FAM-PL1, 0-112 µM FN-EDB or 0-275 µM TNC-C; PBS with 0.1% Pluronic F-127; 24 h at 25 °C; non-specific binding with 500 µM Biotin-Ahx-PL1; global fit, single site with ligand depletion
[8] = target: Tenascin C C-isoform, wild type, hexahistidine-tagged; test: as above
[9] = target: Fibronectin Extra Domain B mutant D52N D49N D12N, hexahistidine-tagged (human); test: phage binding assay (titre of eluted phage); His-tagged proteins (30 µg/10 µL beads) on Ni-NTA magnetic agarose beads; T7 phage 5 x 10^8 pfu in 100 µL PBS, 1% BSA, 0.1% NP40, RT, 1 h; 6 washes; eluted with 500 mM imidazole; PFU counted; expressed as percent of WT protein
[10] = target: Fibronectin Extra Domain B mutant D68N D70N, hexahistidine-tagged (human); test: as above
[11] = target: Fibronectin Extra Domain B mutant E42Q D68N E64Q, hexahistidine-tagged (human); test: as above

`CN(C)CCCN1c2ccccc2Sc2ccc(Cl)cc21` [Chlorpromazine] was tested, and the “Effect of inhibitor on the uptake of PL1-AgNPs in U87-MG cells” value (shortened to “Effect of inhibitor”) [1] was “statistically significant inhibitory effect”.

With `C[C@@H]1[C@H](O)[C@@H](C)/C=C/C=C/CC/C=C/C=C/C=C/C=C/C(O[C@H]2O[C@H](C)[C@@H](O)[C@H](N)[C@@H]2O)CC2O[C@](O)(CC(O)C(O)CCC(O)CC(O)CC(O)CC(=O)O[C@H]1C)CC(O)C2C(=O)O` (stereo partly shown) [Nystatin] the “Effect of inhibitor” value [1] was “statistically significant inhibitory effect”.

`CCN(c1nc(N)c(C(=O)N=C(N)N)nc1Cl)C(C)C` [EIPA, 5-(N-ethyl-N-isopropyl)-Amiloride] was tested, and the “Effect of inhibitor” value [1] was “statistically significant inhibitory effect; also recorded: strongest”.

For `C=C1[C@@H](C)[C@H]2[C@H](Cc3ccccc3)NC(=O)[C@]23[C@H](OC(C)=O)/C=C/[C@@](C)(O)C(=O)[C@@H](C)C/C=C/[C@H]3[C@@H]1O` [Cytochalasin D], the “Effect of inhibitor” value [1] was “statistically significant inhibitory effect”.

For “PL1-NW: iron oxide nanoworms coated with PL1 peptide labeled with FAM fluorophore ({FAM-Ahx}-PPRRGLIKLKTS-OH; also: peptide coated on iron oxide nanoworms)”, the “Reduction of PL1-NW binding to TNC-C D39N D45N mutant versus WT TNC-C” value [2] was ~ 100% and the “Reduction of PL1-NW binding to FN-EDB D52N D49N D12N mutant versus WT FN-EDB” value [3] was ~ 76%.

B1: Tenascin C C-isoform, wild type, hexahistidine-tagged D13N; E70Q; E88Q (protein)
chain: EALPLLENLTISNINPYGFTVSWMASENAFDSFLVTVVDSGKLLDPQEFTLSGTQRKLELRGLITGIGYQVMVSGFTQGHQTKPLRAQIVT
With B1 the percent of parent (% Change over wt TNC-C) [4] was 33 and the percent of parent (% Change over wt TNC-C) [5] was 70.

B2: Fibronectin Extra Domain B, wild type, hexahistidine-tagged, P02751 E42Q; D68N; E64Q (protein)
chain: EVPQLTDLSFVDITDSSIGLRWTPLNSSTIIGYRITVVAAGQGIPIFEDFVDSSVGYYTVTGLQPGINYDISVITLINGGESAPTTLTQQT
For B2, the percent of parent (% Change over wt FnEDB) [5] was 57.

B3: Tenascin C C-isoform, wild type, hexahistidine-tagged D39N; D45N (protein)
chain: EALPLLENLTISDINPYGFTVSWMASENAFDSFLVTVVNSGKLLNPQEFTLSGTQRKLELRGLITGIGYEVMVSGFTQGHQTKPLRAEIVT
B3 showed a percent of parent (% Change over wt TNC-C) [5] of 0.

B4: Tenascin C C-isoform, wild type, hexahistidine-tagged E48Q (protein)
chain: EALPLLENLTISDINPYGFTVSWMASENAFDSFLVTVVDSGKLLDPQQFTLSGTQRKLELRGLITGIGYEVMVSGFTQGHQTKPLRAEIVT
For B4, the percent of parent (% Change over wt TNC-C) [4] was 38 and the percent of parent (% Change over wt TNC-C) [5] was 64.

B5: Fibronectin Extra Domain B, wild type, hexahistidine-tagged, P02751 D68N; D70N (protein)
chain: EVPQLTDLSFVDITDSSIGLRWTPLNSSTIIGYRITVVAAGEGIPIFEDFVDSSVGYYTVTGLEPGINYNISVITLINGGESAPTTLTQQT
B5 showed a percent of parent (% Change over wt FnEDB) [5] of 29.

{FAM-Ahx}-PPRRGLIKLKTS-OH (also: peptide coated on iron oxide nanoworms) [PL1-functionalized iron oxide nanoworms (FAM-labelled PL1 peptide on NWs)] gave a percent reduction of binding against WT FN-EDB [6] of 76%.

Molecule {5(6)‑carboxyfluorescein-Ahx}-PPRRGLIKLKTS-OH [FAM-PL1 peptide (free peptide)] has a Kd [7] of 1.11 µM and a Kd [8] of 1.14 µM.

Molecule PPRRGLIKLKTS [PL1 peptide displayed on T7 phage] has a percent decrease of binding against WT FN-EDB [9] of 87%, a percent increase of binding against WT FN-EDB [10] of 142% and a percent increase of binding against WT FN-EDB [11] of 161%.

From publication PMC8707168, “PL1 Peptide Engages Acidic Surfaces on Tumor-Associated Fibronectin and Tenascin Isoforms to Trigger Cellular Uptake” (Pharmaceutics, 2021)
